For this experiment, the target named is H5 hemagglutinin expressed on transfected cells (pJK2b-HA5) (influenza A virus, subtype H5; strain not stated). The experiment is described as follows: cell-based or functional assay.

B1: 항체 4D9 (antibody 4D9), purified (antibody, V domains shown)
VH: QVTLRESGPGLVKPSETLSLTCTISGASINTDYWSWIRQPPGKGLEWIGYIYYRGRTNYNPSLRSRVTISVDTSKNQFSLQMTSMTAADTAVYYCARDVTGISRENAFDIWGQGTLVTVSS
VL: AIRMTQSPSSLSASVGDRVTITCRASQSISGYLNWYQQKPGKAPKLLIYAASSLQSGVPSRFSGSGSGTDFTLTISSLQPEDFATYYCQQSYSIPTTFGQGTRLEIK
Molecule B1 registered a cell fusion inhibition of 50 to 60%.

The record behind these values is patent KR20140116416A.
